# In patent publication US20150010525A1, “Catalytic Tagging System to Study Macro-Molecular Interactions Using Engineered Ubiquitin Ligase and Ubiquitin-Like Proteins to Facilitate Substrate Identification” (THE REGENTS OF THE UNIVERSITY OF CALIFORNIA, priority 2012, published 2015):
# B1: Serine/threonine-protein phosphatase PGAM5, mitochondrial: phosphoglycerate mutase family member 5, dimeric protein phosphatase (protein, UniProt Q96HS1 1-289, looked up)
# chain: MAFRQALQLAACGLAGGSAAVLFSAVAVGKPRAGGDAEPRPAEPPAWAGGARPGPGVWDPNWDRREPLSLINVRKRNVESGEEELASKLDHYKAKATRHIFLIRHSQYHVDGSLEKDRTLTPLGREQAELTGLRLASLGLKFNKIVHSSMTRAIETTDIISRHLPGVCKVSTDLLREGAPIEPDPPVSHWKPEAVQYYEDGARIEAAFRNYIHRADARQEEDSYEIFICHANVIRYIVCRALQFPPEGWLRLSLNNGSITHLVIRPNGRVALRTLGDTGFMPPDKITRS
# modifications: full-length
# notes: phosphoglycerate mutase family member 5, dimeric protein phosphatase
# Legend:
# [1] = target: T1, cIAP1 (Homo sapiens, UniProt P61081+Q13490); assay: SILAC mass spectrometry screen for cIAP1 substrates with NEDDylator^cIAP1 in apoptotic Jurkat cell lysate; assay type: biochemical; details: Light lysate with NEDDylator^cIAP1, Heavy lysate with Ubc12
# T1 construct: cIAP1(ΔR) (residues 1-555); GST (N, cleaved yes); made in house; host or cells: E. coli BL21 (DE3)
# Description: Jurkat cells were grown in media containing either light or heavy isotopes of lysine and arginine and induced to undergo apoptosis with STS. Light cell extracts were incubated with the respective catalytic tagging system for each of the two IAPs and the heavy extracts labeled only with the wild-type NEDD8 E2, Ubc12. […] 100 mg ^13C6^15N2 L-Lys.2HCl and 86 mg ^13C6 L-Arg.HCl (Cambridge Isotope) were added to the same amount of medium to generate the “Heavy” medium. Jurkat cells were cultured separately in “Light” or “Heavy” medium for 7 days to allow for thorough isotope incorporation. For IAP substrate identification, 400 million cells were treated with 2 μM STS for 4 hours, harvested, lysed in M-PER mammalian protein extraction buffer (Thermo/Pierce) in the presence of protease inhibitors (100× ProteoBlock cocktail, Fermentas) and mixed with cell lysate prepared from 400 million untreated cells. […] Purified NEDDylated proteins were trypsinized and analyzed with tandem mass spectrometry (LC-MS/MS).
# For SILAC experiments, Jurkat cells were cultured separately in “Light” (supplemented with regular Lys and Arg) or “Heavy” (supplemented with ^13C6^15N2 Lys and ^13C6 Arg) medium for 7 days to allow for thorough isotope incorporation. Apoptotic “Light” and “Heavy” cell extracts were prepared individually. The lysates were cleared by spinning and then diluted in 50 mM HEPES pH 7.4, 150 mM NaCl to 5 mg/ml and supplemented with 5 mM ATP, 10 mM MgCl2. Endogenous NEDD8 E1 is cell lysate was used to catalyze the reaction. HB-NEDD8 was added to both lysate at mass ratio 1:500; the catalytic tagging system was added to the “Light” lysate at mass ratio 1:1000. Equal molar of Ubc12 was added to the “Heavy” lysate. […] NEDDylated proteins were separated by one-dimensional SDS-PAGE, and trypsinized for LC-MS/MS analysis.
# For liquid chromatography—Tandem mass spectrometry (LC-MS/MS) analysis, the tryptic peptides were first desalted and concentrated with a C18 Ziptip (Millipore). LC-MS/MS was carried out by reverse phase LC interfaced with a LTQ-Orbitrap (ThermoFisher Scientific) hybrid mass spectrometer. A nanoflow HPLC (NanoAcquity UPLC system, Waters Corporation) was equipped with a trap column (180 μm×20 mm, 5 μm SymmetryC18, from Waters) and an analytical column (100 μm×100 mm, 1.7 μm BEH130C18, from Waters). Peptides were eluted over a linear gradient from 2% solvent A (0.1% formic acid in water) to 35% solvent B (0.1% formic acid in acetonitrile) at 350 nL/min over 35 min. MS and MS/MS spectra were acquired in a data-dependent mode with MS spectra acquired in the Orbitrap at 30,000 resolving power and 6 CID MS/MS spectra acquired per MS in the LTQ linear ion trap. Dynamic exclusion was set at 90 seconds to prevent repeated MS/MS on the same precursor ion.
# The identified peptides were searched against a random decoy protein database for evaluating the false positive rates. […] The decoy peptides were removed from the data. Protein IDs were assigned only when at least two unique peptides were identified from the same protein. For SILAC experiment, Light/Heavy ratios for the identified peptides were calculated, using ProteinProspector. The media Light/Heavy ratios of all the peptides identified for each protein were used to represent the Light/Heavy ratio of the protein.
# [2] = target: T2, GST-XIAP (Homo sapiens, UniProt P98170); assay: In vitro GST pull down; assay type: binding; details: recombinant proteins
# T2 construct: made in house
# Excerpt: (§1) FIG. 12 illustrates the identification of the proteolytic form of PGAM5 as an XIAP and cIAP1 substrate in vitro. […] Overall, 15 unique peptides from PGAM5 were recovered and account for 43% of the entire protein sequence. (B) An example of LC-MS/MS spectrum from endogenous PGAM5 N-terminal peptide after subtiligase labeling and positive enrichment. A non-natural amino acid, 2-aminobutyric acid (Abu), is a designed tag showing characteristic labeling by subtiligase. (C) PGAM5 is cleaved into a truncated form in cells. Jurkat cells were transiently transfected with C-terminal Myc tagged full length PGAM5 or PGAM5 (Δ2-24). […] (D) N-terminal amino acid sequence alignment of PGAM5(Δ24) and other known evolutionarily conserved IBM sequences. Reaper, Hid, and Grim are Drosophila proteins that bind DIAP1, the Drosophila IAP. Amino acids are colored according to their chemical properties. (E) XIAP binds PGAM5(Δ24) but not the full length PGAM5. Recombinant GST fused XIAP, PGAM5(FL), and PGAM5(Δ24) were used for in vitro GST pull down experiments. (F) PGAM5(Δ24) binds to XIAP and cIAP1 independent of the RING domain. […] The resins were washed and proteins were eluted and analyzed with SDSPAGE and coomassie blue staining. […] The ubiquitination assay was performed in vitro and PGAM5 is detected with an anti-His antibody.
# [3] = target: XIAP (Homo sapiens, UniProt P98170); assay: In vitro PGAM5 ubiquitination assay with XIAP; assay type: biochemical; details: 50 nM UBE1, 200 nM UbcH5b, 700 nM XIAP, 1.5 μM PGAM5-His6
# Excerpt: as §1, with “antibody. […]” for “antibody.”
# T2 sequence (P98170 whole entry): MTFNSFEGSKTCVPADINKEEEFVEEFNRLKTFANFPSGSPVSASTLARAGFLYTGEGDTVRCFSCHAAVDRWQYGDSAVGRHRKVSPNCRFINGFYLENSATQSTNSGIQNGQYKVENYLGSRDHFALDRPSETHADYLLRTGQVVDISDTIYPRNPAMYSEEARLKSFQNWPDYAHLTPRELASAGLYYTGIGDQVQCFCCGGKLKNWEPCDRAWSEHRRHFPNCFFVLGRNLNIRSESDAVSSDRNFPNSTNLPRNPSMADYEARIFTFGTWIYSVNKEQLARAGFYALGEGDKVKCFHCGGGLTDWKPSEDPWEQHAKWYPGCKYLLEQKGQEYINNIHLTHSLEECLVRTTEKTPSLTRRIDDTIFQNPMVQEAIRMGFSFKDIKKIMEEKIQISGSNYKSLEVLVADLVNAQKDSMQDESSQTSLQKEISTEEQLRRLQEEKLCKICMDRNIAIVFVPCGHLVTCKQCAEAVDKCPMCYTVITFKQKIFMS
# Sequence of XIAP (P98170 whole entry): as above
# T1 sequence (Q13490+P61081 fused): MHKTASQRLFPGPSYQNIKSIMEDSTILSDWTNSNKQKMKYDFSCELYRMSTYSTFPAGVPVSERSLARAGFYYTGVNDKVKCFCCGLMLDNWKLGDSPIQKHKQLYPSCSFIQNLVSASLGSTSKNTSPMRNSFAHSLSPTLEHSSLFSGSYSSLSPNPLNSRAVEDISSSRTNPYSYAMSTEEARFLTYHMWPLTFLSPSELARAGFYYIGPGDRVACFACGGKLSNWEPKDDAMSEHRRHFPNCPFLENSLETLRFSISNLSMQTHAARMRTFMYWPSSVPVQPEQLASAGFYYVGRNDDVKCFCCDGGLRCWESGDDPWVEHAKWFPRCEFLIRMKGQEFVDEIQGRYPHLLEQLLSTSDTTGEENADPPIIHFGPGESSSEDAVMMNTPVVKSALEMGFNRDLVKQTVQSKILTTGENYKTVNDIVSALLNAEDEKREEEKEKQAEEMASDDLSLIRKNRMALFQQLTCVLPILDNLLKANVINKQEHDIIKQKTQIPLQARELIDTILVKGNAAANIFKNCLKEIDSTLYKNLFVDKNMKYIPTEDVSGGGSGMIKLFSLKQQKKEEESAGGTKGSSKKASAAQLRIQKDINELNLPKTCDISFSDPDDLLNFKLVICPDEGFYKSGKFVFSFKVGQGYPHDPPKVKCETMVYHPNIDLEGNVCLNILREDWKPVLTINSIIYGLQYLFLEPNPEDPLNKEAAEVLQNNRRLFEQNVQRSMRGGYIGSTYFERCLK
molecule,measurement,setting,value
B1,L/H (Light/Heavy ratio),[1],23.7
same,binding to XIAP (pull down),[2],not the full length PGAM5 was pulled down
same,ubiquitination by XIAP,[3],not the full length protein
